{"source": "patent US20100215737A1", "about": "“COMBINATION PHARMACEUTICAL COMPOSITIONS” (priority 2007, published 2010)", "origin": "cited, not measured here", "molecules": {"B1": {"name": "rt-PA: tissue plasminogen activator, thrombolytic (protein, UniProt P00750 36-562, looked up)", "Tissue-type plasminogen …": "SYQVICRDEKTQMIYQQHQSWLRPVLRSNRVEYCWCNSGRAQCHSVPVKSCSEPRCFNGGTCQQALYFSDFVCQCPEGFAGKCCEIDTRATCYEDQGISYRGTWSTAESGAECTNWNSSALAQKPYSGRRPDAIRLGLGNHNYCRNPDRDSKPWCYVFKAGKYSSEFCSTPACSEGNSDCYFGNGSAYRGTHSLTESGASCLPWNSMILIGKVYTAQNPSAQALGLGKHNYCRNPDGDAKPWCHVLKNRRLTWEYCDVPSCSTCGLRQYSQPQFRIKGGLFADIASHPWQAAIFAKHRRSPGERFLCGGILISSCWILSAAHCFQERFPPHHLTVILGRTYRVVPGEEEQKFEVEKYIVHKEFDDDTYDNDIALLQLKSDSSRCAQESSVVRTVCLPPADLQLPDWTECELSGYGKHEALSPFYSERLKEAHVRLYPSSRCTSQHLLNRTVTDNMLCAGDTRSGGPQANLHDACQGDSGGPLVCLNDGRMTLVGIISWGLGCGQKDVPGVYTKVTNYLDWIRDNMRP"}}, "system": "MCO", "conditions": "1 mg/kg iv alone, 1, 2 or 3 h after occlusion"}
{"molecule": "B1", "values": [{"measurement": "neuroprotective effect, drug alone", "value": "neuroprotective effects when administered alone up to 1 h following occlusion"}]}
